Results published in article PMC4792069.

Target: LAP-tagged hMps1 (LAP-Mps1), stably expressed from a BAC (human) (UniProt P33981)
Assay: fluorescence cross-correlation spectroscopy

Sequence of UniProt P33981 (P33981 whole entry): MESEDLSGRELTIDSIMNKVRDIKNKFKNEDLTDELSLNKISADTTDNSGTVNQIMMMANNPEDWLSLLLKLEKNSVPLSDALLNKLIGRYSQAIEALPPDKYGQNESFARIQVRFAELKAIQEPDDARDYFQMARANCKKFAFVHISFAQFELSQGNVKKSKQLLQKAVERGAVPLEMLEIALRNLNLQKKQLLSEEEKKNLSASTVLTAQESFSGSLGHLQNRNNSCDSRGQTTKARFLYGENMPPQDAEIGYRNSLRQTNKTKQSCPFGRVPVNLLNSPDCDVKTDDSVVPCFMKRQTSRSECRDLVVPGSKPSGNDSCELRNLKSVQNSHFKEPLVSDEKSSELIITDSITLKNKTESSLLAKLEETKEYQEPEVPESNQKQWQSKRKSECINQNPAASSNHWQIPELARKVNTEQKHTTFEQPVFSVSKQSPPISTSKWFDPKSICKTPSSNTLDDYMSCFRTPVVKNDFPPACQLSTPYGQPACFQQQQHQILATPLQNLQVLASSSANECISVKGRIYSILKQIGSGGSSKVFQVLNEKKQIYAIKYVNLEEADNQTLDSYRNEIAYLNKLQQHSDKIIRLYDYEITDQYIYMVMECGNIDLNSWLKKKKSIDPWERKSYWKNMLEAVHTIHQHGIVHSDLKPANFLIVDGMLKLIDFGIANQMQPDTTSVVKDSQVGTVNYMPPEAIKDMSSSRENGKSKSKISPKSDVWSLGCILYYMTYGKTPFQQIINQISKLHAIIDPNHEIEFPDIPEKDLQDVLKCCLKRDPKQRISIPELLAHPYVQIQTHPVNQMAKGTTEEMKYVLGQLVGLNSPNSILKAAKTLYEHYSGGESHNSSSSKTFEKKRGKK

mCherry-tagged ARHGEF17 (ARHGEF17-mCherry), Q96PE2 1-2063
normalized cross-correlation (FCCS): 12.4%
